The target of the test is T1, KIF1C-GFP (recombinant full-length human KIF1C, 6His-KIF1C-GFP) (human, UniProt O43896 1-1103).
T1 sequence (looked up): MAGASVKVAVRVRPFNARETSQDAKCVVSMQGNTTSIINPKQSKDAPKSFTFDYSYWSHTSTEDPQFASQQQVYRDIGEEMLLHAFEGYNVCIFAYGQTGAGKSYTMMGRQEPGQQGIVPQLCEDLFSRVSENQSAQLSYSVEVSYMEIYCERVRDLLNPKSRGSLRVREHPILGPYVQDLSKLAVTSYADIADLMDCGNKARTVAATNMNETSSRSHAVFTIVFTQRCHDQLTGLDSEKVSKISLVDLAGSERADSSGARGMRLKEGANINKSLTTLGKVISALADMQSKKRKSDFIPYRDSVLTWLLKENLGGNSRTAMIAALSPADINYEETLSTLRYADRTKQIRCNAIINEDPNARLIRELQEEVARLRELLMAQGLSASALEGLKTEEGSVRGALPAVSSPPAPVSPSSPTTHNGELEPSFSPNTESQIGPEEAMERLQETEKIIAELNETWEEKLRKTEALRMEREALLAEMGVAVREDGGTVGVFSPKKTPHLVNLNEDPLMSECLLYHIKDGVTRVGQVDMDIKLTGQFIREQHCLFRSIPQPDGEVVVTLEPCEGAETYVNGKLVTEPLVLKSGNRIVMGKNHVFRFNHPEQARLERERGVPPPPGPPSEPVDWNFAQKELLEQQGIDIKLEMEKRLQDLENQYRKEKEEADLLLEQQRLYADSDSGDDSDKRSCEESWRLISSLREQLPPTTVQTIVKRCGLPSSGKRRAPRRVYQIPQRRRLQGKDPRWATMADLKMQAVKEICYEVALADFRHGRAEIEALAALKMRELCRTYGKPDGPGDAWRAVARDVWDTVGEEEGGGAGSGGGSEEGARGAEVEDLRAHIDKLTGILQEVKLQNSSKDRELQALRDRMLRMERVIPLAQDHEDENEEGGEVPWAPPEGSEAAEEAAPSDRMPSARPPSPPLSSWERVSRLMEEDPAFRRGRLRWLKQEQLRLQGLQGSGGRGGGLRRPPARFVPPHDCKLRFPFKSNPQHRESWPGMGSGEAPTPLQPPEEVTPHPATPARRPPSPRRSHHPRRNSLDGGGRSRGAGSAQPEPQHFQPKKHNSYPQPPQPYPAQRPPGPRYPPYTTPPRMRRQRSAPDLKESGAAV
The experiment in a line: cell-based or functional assay.

This is an account of results in article doi:10.1101/488049 (bioRxiv, 2018).

B1: Hook3-SNAPf labelled with Alexa647 (recombinant human Hook3 with a C-terminal SNAP-tag) (natural protein, UniProt Q86VS8 1-718, looked up)
chain: MFSVESLERAELCESLLTWIQTFNVDAPCQTVEDLTNGVVMAQVLQKIDPAYFDENWLNRIKTEVGDNWRLKISNLKKILKGILDYNHEILGQQINDFTLPDVNLIGEHSDAAELGRMLQLILGCAVNCEQKQEYIQAIMMMEESVQHVVMTAIQELMSKESPVSAGNDAYVDLDRQLKKTTEELNEALSAKEEIAQRCHELDMQVAALQEEKSSLLAENQVLMERLNQSDSIEDPNSPAGRRHLQLQTQLEQLQEETFRLEAAKDDYRIRCEELEKEISELRQQNDELTTLADEAQSLKDEIDVLRHSSDKVSKLEGQVESYKKKLEDLGDLRRQVKLLEEKNTMYMQNTVSLEEELRKANAARSQLETYKRQVVELQNRLSEESKKADKLDFEYKRLKEKVDSLQKEKDRLRTERDSLKETIEELRCVQAQEGQLTTQGLMPLGSQESSDSLAAEIVTPEIREKLIRLQHENKMLKLNQEGSDNEKIALLQSLLDDANLRKNELETENRLVNQRLLEVQSQVEELQKSLQDQGSKAEDSVLLKKKLEEHLEKLHEANNELQKKRAIIEDLEPRFNNSSLKIEELQEALRKKEEEMKQMEERYKKYLEKAKSVIRTLDPKQNQGAAPEIQALKNQLQERDRLFHSLEKEYEKTKSQREMEEKYIVSAWYNMGMTLHKKAAEDRLASTGSGQSFLARQRQATSSRRSYPGHVQPATAR
modifications: Alexa Fluor 647 on the SNAP tag (SNAP-Surface Alexa Fluor 647)
For B1, the “landing rate of KIF1C-GFP on microtubules in single molecule assays, 320 nM KIF1C preincubated with 500 nM Hook3-647” value was determined as 2 fold.
